Measurements taken from article PMC8299219 (Cell, 2021).

B1: C12D2 (antibody, V domains shown)
VH: EVQLVESGGGLVQPGGSLRLSCAASGFTFSSYWMSWVRQAPGKGLEWVANIKQDGSEKYYVDSVKGRFIISRDNAKNSLYLQMNSLRAEDTAVYYCARDQRRFLEWLSYYYYMDVWGKGTTVTVSS
VL: not shown
B2: G32A3 (antibody, V domains shown)
VH: QVQLVQSGAEVKRPGASVKVSCKASGYTFTSYGITWVRQAPGQGLEWMGWISAYNGNTNYAQKLQGRVTMTTDSSTSTAYMELRSLRSDDTAVYYCARTPNSVITMIVVVTQTLDYWGQGTLVTVSS
VL: QSALTQPASVSGSPGQSITISCTGTSSDVGGYNYVSWYQQHPGKAPKLMIYEVSNRPSGVSNRFSGSKSGNTASLTISGLQAEDEADYYCSSYTSSSTRVFGGGTKLTVL
B3: C15C9 (antibody, V domains shown)
VH: QVQLQQWGTGLLKPSETLSLTCAVYGGSFSGYYWTWIRQPPGKGLEWIGEINHSGTTTYNPSLKSRVTISVEKSENQFSLKLNSVTAADTAVYYCARGSRCSSASCLFYYFYYIDVWGKGTTVTVSS
VL: not shown
B4: C15C7 (antibody, V domains shown)
VH: QVQLVESGGGVVQPGRSLRLSCAASGFTFSSYGMHWVRQAPGKGLEWVAVISYDGSNKYYADSVKGRFTISRDNSKNTLYLQMNSLRAEDTAVYYCAKDAYYYDSSGYYPRDYYYYYYYMDVWGKGTTVTVSS
VL: not shown
B5: C81A10 (antibody, V domains shown)
VH: QVQLVQSGAEVKKPGSSVKVSCKASGGTFRSYAISWVRQAPGQGLEGMGGIIPIFGTTNYAQKFQGRVTITADESTSTAYMELSSLRSEDTAVYYCARSEWGDGYNQYYFDQWGQGALVTVSS
VL: DIQMTQSPSSLSAFVGDRVTITCRASQSISRYLNWYQQKPGKAPKVLIYAASSLQSGVPSRFSGSGSGTDFTLTISSLQPEDFATYYCQQSYSTLTFGGGTKVEIK
B6: C83B7 (antibody, V domains shown)
VH: QVQLVQSGAEVKKPGASVKVSCKASGYTFTSYYLHWVRQAPGQGLEWMGIINPSGGSTSYAQKFQGRVTMTRDTSTSTVYMELRSLRSEDTAVYYCARDSAPRDYDFWSGYYFGVNGKGSSMDVWGQGTTVTVSS
VL: QSALTQPPSASGSPGQSVTISCTGTSSDVGGYNYVSWYQQHPGKAPKLMIYEVSKRPSGVPDRFSGSKSGNTASLTVSGLQAEDEADYYCSSYAGSNNYVFGTGTKVTVL
B7: C93D10 (antibody, V domains shown)
VH: QVQLVQSGAEVKKPGASVKVSCKASGYTFTSYYMHWVRQAPGQGLEWMGIINPSGGSTSYAQKFQGRVTMTRDTSTSTVYMELSSLRSEDTAVYYCARDPSSDYDFWSGWGNQYYYYGMDVWGQGTTVTVSS
VL: DIQLTQSPSFLSASVGDRVTITCRASQGISSYLAWYQQKPGKAPKLLIYAASTLQSGVPSRFSGSGSGTEFTLTISSLQPEDFATYYCQQLNSYPFTFGPGTKVDIK
B8: C15C12 (antibody, V domains shown)
VH: EVQLLESGGGLVQPGGSLRLSCAASAFTFTNYDMNWVRQAPGKGLEWVSTISGSGDITYYADFVKGRFTISRDNSKNTLNLQMNSLRADDTAVYYCAKDFARRGYNGYEEKFISMFGGVIADYGMDVWGQGTTVTVSS
VL: EIVLTQSPTTLSLSPGERVTLSCRASQSISSYLAWYQQKPGQAPRLLIYRASNRATGISARFSGSGSGTDFTLTISSLEPEDFAVYYCQQRSNWPLTFGGGTKVEIK
B9: C15E7 (antibody, V domains shown)
VH: QVQLQQWGAGLLKPSETLSRTCAVYGGSFSGYYWTWIRQPPGMALEWIGDINHGGVTNYNPSLKSRVTISVDTSKNQFSLRLTSVTAADTAVYYCARRLLGDPRPASSSLSLRRVSYMDVWDKGTTVTVSS
VL: DIQMTQSPSSMPASVGDRVTITCRASQSISNYLNWYQQEPGRAPKLLIYGASSLQSGVPSRFGGSGSGTEFTLTITALQPEDSATYYCQQIHGAPPITFGQGTRLEIK
B10: C83A5 (antibody, V domains shown)
VH: QVQLVESGGGVVQPGRSLRLSCAASRFTFSSYGMHWVRQAPGKGLEWVAVIWFDGTNKYYADSVKGRFTISRDNSKNTLYLQMNSLRVEDTAVYYCARDGAYYDRSAYYYRLKFYFDFWGQGTLVTVSS
VL: SYELTQPPSVSVSPGQTARITCSGDALPNQYVYWYHQKPGQAPVLVIYKDSERPSGIPERFSGSSSGTTVTLTISGVQAEDEADYYCQSADSSGNIGVFGGGTKLTVL
B11: C83A4 (antibody, V domains shown)
VH: QVQLQESGPGLVKPSQTLSLTCTVSGGSISSGGYYWSWIRQHPGKGLEWIGYIYYSGSTYYNPSLKSRVTISVDTSKNQFSLKLTSVTAADTAVYYCASEPTFRQSSISWYHYGMDVWGQGTTVTVSS
VL: QSALTQPASVSGSPGQSITISCTGTSSDVGRYNYVSWYQQHPGKAPKLMIYDVSNRPSGVSNRFSGSKSGNTASLTISGLQAEDEADYYCSSYTSSSTLVFGTGTKVTVL
B12: C89A5 (antibody, V domains shown)
VH: QVQLVESGGGVVQPGRSLRLPCAASGFSFSGYAMHWVRQAPDKGLEWMAVISFDGSTKTYADSVRGRFTISRDNSKNTLYLQIHTLRTEDTAVYYCARGGGGGDGAFDNWGGGTMVTVSS
VL: DVVMTQSPLSLPVTLGQPASISCRSSQSLVYSDGNTYLIWFQQRPGQSPRRLIYKVSNRDSGVPDRFSGSGSGTDFTLKISRVEADDVGVYYCMQTTHWPYTFGQGTKLEIK
B13: C18C8 (antibody, V domains shown)
VH: EVQLVESGGGLVQPGRSLRLSCTTSGFTFGDYAMSWVRQAPGKGLEWVGFIRSKAYGGTTEYAASVKGRFTISRDDSKSIAYLQMNSLKTEDTAVYCCTRGLKVEPYYFDYWGQGTLVTVSS
VL: not shown
B14: C7A2 (antibody, V domains shown)
VH: EVQLLESGGGLVQPGGSLRLSCAASGFIFSNYVVSWVRQAPGKGLEWVSGISVNGDTTFYADSVKGRFTISRDNSKNTLYLQMNSLRAEDTAVYYCAKVRGYCSGGRGCMDVWGQGTTVTVSS
VL: DIQLTQSPSSLSASVGDRVTITCQASQDIGNTLAWYQQKPGKAPNLLIYDASSLQSGVPSRFSGSVSGTDFTLTITSLQLEDFATYYCQQFNTYPALTFGGGTKVEIK
B15: G32Q6 (antibody, V domains shown)
VH: EVQLLESGGGLVQPGGSLRLSCAASGFTFSNYAMNWVRQAPGKGLEWVSGISGNGVNTFYADSVKGRFTISRDNSRNTLYLQMNSLRAEDTAVYYCAKAIQTYSNYVLGADYWGQGTLVTVSS
VL: QSALTQPRSVSGSPGQSVTISCTGTNSDVGNYNFVSWYQQHPGRAPKLMIYDVSKRPSGVPDRFSGSKSDNTASLTISGLQAEDQADYYCCSYATSYTFRVVFGGGTKLTVL
B16: C53E12 (antibody, V domains shown)
VH: QVQLVESGGGVVQPGRSLRLSCAASGFTFSSYGMHWVRQAPGKGLEWVAVISYDGSNKYYVDSVKGRFTISRDNSKNTLYLQMNSLRAEDTAVYYCAKGTEIVVVPADYFDYWGQGTLVTVSS
VL: EIVLTQSPATLSLSPGERATLSCRASQSVSSYLAWYQQKPGQAPRLVIYDASNRATGIPARFSGSGSGTDFTLTISSLEPEDFAVYYCQQRSNWPGFTFGPGTKVDIK

The binders below were run against SARS-CoV-2 S ectodomain trimer, prefusion-stabilized, 2P variant (Wrapp et al., 2020) (SARS-CoV-2, Wuhan-Hu-1, UniProt P0DTC2, stabilised).
B1: binds.
B2: binds.
B3: binds.
B4: binds.
B5: binds.
B6: binds.
B7: binds.
B8: binds.
B9: binds.
B10: binds.
B11: binds.
B12: binds.
B13: binds.
B14: binds.
B15: binds.
B16: binds.
